Assay results reported in article PMC9043764.

B1: cathepsin V (CTSV): N221Q (protein)
parent chain: MNLSLVLAAFCLGIASAVPKFDQNLDTKWYQWKATHRRLYGANEEGWRRAVWEKNMKMIELHNGEYSQGKHGFTMAMNAFGDMTNEEFRQMMGCFRNQKFRKGKVFREPLFLDLPKSVDWRKKGYVTPVKNQKQCGSCWAFSATGALEGQMFRKTGKLVSLSEQNLVDCSRPQGNQGCNGGFMARAFQYVKENGGLDSEESYPYVAVDEICKYRPENSVANDTGFTVVAPGKEKALMKAVATVGPISVAMDAGHSSFQFYKSGIYFEPDCSSKNLDHGVLVVGYGFEGANSNNSKYWLVKNSWGPEWGSNGYVKIAKDKNNHCGIATAASYPNV
B2: cathepsin V (CTSV): 2NQ (protein)
parent chain: MNLSLVLAAFCLGIASAVPKFDQNLDTKWYQWKATHRRLYGANEEGWRRAVWEKNMKMIELHNGEYSQGKHGFTMAMNAFGDMTNEEFRQMMGCFRNQKFRKGKVFREPLFLDLPKSVDWRKKGYVTPVKNQKQCGSCWAFSATGALEGQMFRKTGKLVSLSEQNLVDCSRPQGNQGCNGGFMARAFQYVKENGGLDSEESYPYVAVDEICKYRPENSVANDTGFTVVAPGKEKALMKAVATVGPISVAMDAGHSSFQFYKSGIYFEPDCSSKNLDHGVLVVGYGFEGANSNNSKYWLVKNSWGPEWGSNGYVKIAKDKNNHCGIATAASYPNV
B3: cathepsin V (CTSV): N292Q (protein)
parent chain: MNLSLVLAAFCLGIASAVPKFDQNLDTKWYQWKATHRRLYGANEEGWRRAVWEKNMKMIELHNGEYSQGKHGFTMAMNAFGDMTNEEFRQMMGCFRNQKFRKGKVFREPLFLDLPKSVDWRKKGYVTPVKNQKQCGSCWAFSATGALEGQMFRKTGKLVSLSEQNLVDCSRPQGNQGCNGGFMARAFQYVKENGGLDSEESYPYVAVDEICKYRPENSVANDTGFTVVAPGKEKALMKAVATVGPISVAMDAGHSSFQFYKSGIYFEPDCSSKNLDHGVLVVGYGFEGANSNNSKYWLVKNSWGPEWGSNGYVKIAKDKNNHCGIATAASYPNV

experiment: Western blot of supernatant and whole cell lysate, A549; details: glycan lost; control: wild type CTSV

expression_or_secretion, decreases:
B1, B2, B3
